Earlier results, collected in publication PMC5963937.

Molecular target: LPL (Homo sapiens) (UniProt P06858)
UniProt P06858, sequence (P06858 28-475): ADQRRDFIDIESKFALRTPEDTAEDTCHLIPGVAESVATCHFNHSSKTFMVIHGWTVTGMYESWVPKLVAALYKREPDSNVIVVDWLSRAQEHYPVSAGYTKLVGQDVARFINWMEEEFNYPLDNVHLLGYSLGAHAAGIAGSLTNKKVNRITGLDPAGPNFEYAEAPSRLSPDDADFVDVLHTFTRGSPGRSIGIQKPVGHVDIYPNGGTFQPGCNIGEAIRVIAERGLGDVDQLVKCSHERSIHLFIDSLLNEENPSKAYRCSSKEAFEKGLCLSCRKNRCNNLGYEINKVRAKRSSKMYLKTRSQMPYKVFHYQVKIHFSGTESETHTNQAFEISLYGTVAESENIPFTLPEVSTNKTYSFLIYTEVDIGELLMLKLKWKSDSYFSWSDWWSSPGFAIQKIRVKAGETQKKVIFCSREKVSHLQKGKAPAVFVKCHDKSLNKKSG

## GPIHBP1 (from UniProt Q8IV16)
  Kd: 25 nM
